One molecule from paper PMC3406928 (Hypertension, 2012) can be followed below.

This assay deals with T1, angiotensin type 2 receptor (human (endogenous in RPTCs), UniProt P50052 1-363).
T1 sequence (looked up): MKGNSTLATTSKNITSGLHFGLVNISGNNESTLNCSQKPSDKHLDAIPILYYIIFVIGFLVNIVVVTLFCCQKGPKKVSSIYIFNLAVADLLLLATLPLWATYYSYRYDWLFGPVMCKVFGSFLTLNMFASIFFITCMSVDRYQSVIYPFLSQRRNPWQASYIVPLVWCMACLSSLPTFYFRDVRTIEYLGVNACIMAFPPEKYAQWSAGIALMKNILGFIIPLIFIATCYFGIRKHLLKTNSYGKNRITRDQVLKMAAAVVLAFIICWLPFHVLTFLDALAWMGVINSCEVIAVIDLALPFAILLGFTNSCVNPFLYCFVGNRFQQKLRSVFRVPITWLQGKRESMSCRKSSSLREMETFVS
The assay can be described thus: FRET or BRET.

B1: dopamine D1 receptor (receptor, human (endogenous in nRPTCs), UniProt P21728 1-446, looked up)
chain: MRTLNTSAMDGTGLVVERDFSVRILTACFLSLLILSTLLGNTLVCAAVIRFRHLRSKVTNFFVISLAVSDLLVAVLVMPWKAVAEIAGFWPFGSFCNIWVAFDIMCSTASILNLCVISVDRYWAISSPFRYERKMTPKAAFILISVAWTLSVLISFIPVQLSWHKAKPTSPSDGNATSLAETIDNCDSSLSRTYAISSSVISFYIPVAIMIVTYTRIYRIAQKQIRRIAALERAAVHAKNCQTTTGNGKPVECSQPESSFKMSFKRETKVLKTLSVIMGVFVCCWLPFFILNCILPFCGSGETQPFCIDSNTFDVFVWFGWANSSLNPIIYAFNADFRKAFSTLLGCYRLCPATNNAIETVSINNNGAAMFSSHHEPRGSISKECNLVYLIPHAVGSSEDLKKEEAAGIARPLEKLSPALSVILDYDTDVSLEKIQPITQNGQHPT
As to B1, the “fold increase of corrected FRET after FEN stimulation vs. control” value was 1.96 fold.
